Targets include HLA-A*03:01; HLA-A*11:01; HLA-A*31:01; HLA-A*33:01; HLA-A*68:01.
Holding throughout (test): IEDB peptide-MHC binding, purified MHC/competitive/radioactivity; filed as Kd, often an IC50 or EC50 that approximates it; ≥ and ≤ were set here for values at or beyond the usual limits of such assays
Where [1] appears, read: source organism: Vaccinia virus WR.
The mark [2] stands for this setting: source organism: SARS coronavirus Tor2.
[3] abbreviates: source organism: Mammarenavirus brazilense.
Where [4] appears, read: source organism: Dengue virus 1 Brazil/97-11/1997.
[5] abbreviates: source organism: Dengue virus 2 Jamaica/1409/1983.
Where [6] appears, read: source organism: Dengue virus 3 Martinique/1243/1999.
Setting [7] is: source organism: Mammarenavirus machupoense.
Setting [8] is: source organism: Dengue virus 1 Nauru/West Pac/1974.
[9] abbreviates: source organism: Dengue virus 4 Philippines/H241/1956.

Bounds are passed on as bounds.

As for VIDKAKVMGR, the Kd with HLA-A*03:01 (setting [1]) was determined as 805 nM; in the assay with HLA-A*11:01 (setting [1]), 488 nM; with HLA-A*31:01 (setting [1]), 130 nM; with HLA-A*33:01 (setting [1]), 2650 nM; with HLA-A*68:01 (setting [1]), 334 nM.
In the case of LFSTSAADIK, the Kd was 19600 nM with HLA-A*03:01 (setting [1]); 4790 nM with HLA-A*11:01 (setting [1]); not below 70000 nM with HLA-A*31:01 (setting [1]); not below 70000 nM with HLA-A*33:01 (setting [1]); 57.8 nM with HLA-A*68:01 (setting [1]).
For LITLILSNK, the Kd in the assay with HLA-A*03:01 (setting [1]) came out at 20.9 nM; with HLA-A*11:01 (setting [1]), 19 nM; in the assay with HLA-A*31:01 (setting [1]), 2080 nM; with HLA-A*33:01 (setting [1]) it was 6720 nM; with HLA-A*68:01 (setting [1]), 32.7 nM.
Turning to RQFHQKLLK, the Kd with HLA-A*03:01 (setting [2]) was 12.6 nM; with HLA-A*11:01 (setting [2]), 13.3 nM; in the assay with HLA-A*31:01 (setting [2]), 8.5 nM; with HLA-A*33:01 (setting [2]), not below 77700 nM; with HLA-A*68:01 (setting [2]), not below 39500 nM.
GSFQEFRSNH: the dissociation constant (Kd) is not below 28700 nM with HLA-A*03:01 (setting [3]); 7130 nM with HLA-A*11:01 (setting [3]); 1520 nM in the assay with HLA-A*31:01 (setting [3]); not below 45200 nM with HLA-A*33:01 (setting [3]); not below 70100 nM with HLA-A*68:01 (setting [3]).
FFTELENKK: the Kd was not below 78000 nM with HLA-A*03:01 (setting [1]); 6190 nM in the assay with HLA-A*11:01 (setting [1]); not below 25700 nM in the assay with HLA-A*31:01 (setting [1]); not below 30900 nM in the assay with HLA-A*33:01 (setting [1]); 3360 nM in the assay with HLA-A*68:01 (setting [1]).
For RKTFVELMRR, the Kd in the assay with HLA-A*31:01 (setting [4]) was determined as 51.2 nM.
For ISELSRLRY, the Kd is 6570 nM with HLA-A*03:01 (setting [1]); 10800 nM in the assay with HLA-A*11:01 (setting [1]); 5370 nM with HLA-A*31:01 (setting [1]); not below 77700 nM with HLA-A*33:01 (setting [1]); not below 22700 nM with HLA-A*68:01 (setting [1]).
For PIGMQFDKVY, in that order: not below 70100 nM, 1230 nM, not below 70000 nM, not below 70000 nM and 13000 nM.
As to LIIYYQLAGY, the dissociation constant Kd was 137 nM in the assay with HLA-A*03:01 (setting [1]); 5120 nM with HLA-A*11:01 (setting [1]); not below 25700 nM with HLA-A*31:01 (setting [1]); not below 67600 nM with HLA-A*33:01 (setting [1]); 8000 nM with HLA-A*68:01 (setting [1]).
In the case of KLKPRWLDAR, the equilibrium dissociation constant (Kd) in the assay with HLA-A*31:01 (setting [5]) worked out at 1.39 nM.
Consider LAILFEEVMR, for which the dissociation constant Kd with HLA-A*68:01 (setting [6]) turned out to be 29.7 nM.
Turning to SSVSVLMKEH, the Kd with HLA-A*03:01 (setting [7]) is 17700 nM; with HLA-A*11:01 (setting [7]) it was not below 31000 nM; with HLA-A*31:01 (setting [7]), 11700 nM; in the assay with HLA-A*33:01 (setting [7]) it was not below 70000 nM; with HLA-A*68:01 (setting [7]), 8860 nM.
On to AAYYFMKFR, for which the equilibrium dissociation constant (Kd) with HLA-A*03:01 (setting [2]) was determined as 124 nM; in the assay with HLA-A*11:01 (setting [2]), 47.2 nM; with HLA-A*31:01 (setting [2]), 1.23 nM; in the assay with HLA-A*33:01 (setting [2]), 117 nM; with HLA-A*68:01 (setting [2]), 15.4 nM.
With MISRMLINR, the Kd was found to be 258 nM with HLA-A*11:01 (setting [5]), 4.37 nM in the assay with HLA-A*31:01 (setting [5]), 9.7 nM with HLA-A*33:01 (setting [5]) and 22.7 nM with HLA-A*68:01 (setting [5]).
As to FFLSGRGLGK, the Kd in the assay with HLA-A*03:01 (setting [8]) was 12 nM.
Take TVEAGRTLR: the Kd with HLA-A*68:01 (source organism: Dengue virus 2 Peru/IQT2913/1996) stood at 13 nM.
As to ALFLEEMLR, the Kd in the assay with HLA-A*03:01 (setting [5]) is 304 nM.
With SISNITTATR, the Kd with HLA-A*31:01 (setting [9]) was determined as 626 nM; with HLA-A*33:01 (setting [9]), 10.6 nM; with HLA-A*68:01 (setting [9]) it was 13.6 nM.
As to GLYGNGVVTK, in the assay with HLA-A*03:01 (setting [6]), the Kd was 3.65 nM.
For VTVASAAQR, the Kd in the assay with HLA-A*68:01 (setting [4]) was determined as 48.7 nM.
Regarding IFLRKLTSR, the dissociation constant (Kd) in the assay with HLA-A*31:01 (setting [9]) stood at 39 nM; with HLA-A*33:01 (setting [9]), 108 nM.
For ENMEVEIWTR, in the assay with HLA-A*33:01 (setting [9]), the Kd was determined as 106 nM.
As for YSMCTGKFK, the Kd with HLA-A*11:01 (setting [5]) turned out to be 550 nM.
Take NWLARVGRER: in the assay with HLA-A*33:01 (setting [5]), the Kd amounted to 242 nM.
As to RVSTVSQLAK, the Kd with HLA-A*03:01 (setting [8]) came out at 6.04 nM; in the assay with HLA-A*11:01 (setting [8]) it was 40.3 nM.
Take LLNRFTMTHR: the Kd with HLA-A*31:01 (setting [6]) was 15.2 nM.
As for CVYNMMGKR, the Kd in the assay with HLA-A*03:01 (setting [9]) is 63.4 nM; with HLA-A*31:01 (setting [9]), 137 nM; in the assay with HLA-A*68:01 (setting [9]), 117 nM.
AINVLRGFR: the dissociation constant Kd with HLA-A*31:01 (setting [5]) is 3.72 nM.
Regarding STMPLVMAWR, the Kd with HLA-A*11:01 (setting [9]) was determined as 14.8 nM; with HLA-A*31:01 (setting [9]), 1.16 nM; with HLA-A*33:01 (setting [9]) it was 2.89 nM; in the assay with HLA-A*68:01 (setting [9]), 15.2 nM.
Take ESALNDTWK: the Kd with HLA-A*68:01 (setting [5]) is 90.5 nM.
As for LMCHATFTTR, the Kd worked out at 12.7 nM with HLA-A*31:01 (setting [9]) and 97.1 nM in the assay with HLA-A*33:01 (setting [9]).
For LLMHLVSLY, the Kd in the assay with HLA-A*03:01 (setting [1]) is 2.67 nM; with HLA-A*11:01 (setting [1]), 7.11 nM; with HLA-A*33:01 (setting [1]), not below 52500 nM; in the assay with HLA-A*68:01 (setting [1]) it was 9.95 nM.
In the case of CTLPPLRFR, the dissociation constant Kd is not below 77900 nM with HLA-A*31:01 (setting [4]) and 4.13 nM with HLA-A*33:01 (setting [4]).
Turning to TALAFHLTTR, the Kd in the assay with HLA-A*31:01 (setting [4]) is not below 39800 nM; with HLA-A*68:01 (setting [4]) it was 101 nM.
In the case of SIFKLTYQNK, the values for the Kd with HLA-A*03:01 (setting [4]) and with HLA-A*11:01 (setting [4]) were 15.2 nM and 65.9 nM, respectively.
As to MSYTMCSGK, the Kd with HLA-A*03:01 (setting [9]) turned out to be 3.04 nM; with HLA-A*68:01 (setting [9]), 5.87 nM.
Regarding GVCGIRSTTR, the Kd in the assay with HLA-A*31:01 (setting [6]) came out at 27.2 nM.
Turning to KAIKILTGFR, the Kd with HLA-A*31:01 (setting [9]) came to 7.75 nM.
Take FFLRKLTSR: the values for the Kd with HLA-A*31:01 (setting [6]) and with HLA-A*33:01 (setting [6]) were 47.7 nM and 46.6 nM, respectively.
On to ATTFVTPMLR, for which the Kd with HLA-A*11:01 (setting [5]) was found to be 95.2 nM; with HLA-A*31:01 (setting [5]), 91.1 nM; in the assay with HLA-A*68:01 (setting [5]), 16.2 nM.
Take MWQLMYFHR: the dissociation constant (Kd) with HLA-A*31:01 (setting [4]) is not below 24400 nM; with HLA-A*33:01 (setting [4]) it was 1.43 nM.
MLNIMNRRKR: in the assay with HLA-A*31:01 (setting [4]), the Kd was not below 60800 nM.

In general, Kd refers to the constant that tells how readily two partners part at equilibrium.
